From PMC11707139

Target: piggyBat transposase (Myotis lucifugus)
Assay: AUC; sedimentation velocity, ~3.1 µM purified pBat without DNA, 500 mM NaCl, 25 mM Tris-HCl pH 7.4, 0.5 mM TCEP, 50,000 rpm, 20 °C, c(s) analysis

piggyBat transposase (enzyme)
stoichiometry N: 2
